{
  "source": "patent US5714144A",
  "about": "“Human tissue-type plasminogen activator variant” (Genentech, Inc., priority 1995, dated 1998)",
  "key": {"[1]": {"conditions": "humans; cited from earlier work"}, "[2]": {"conditions": "rabbits; cited from earlier work"}, "liver": {"tested_on": "liver", "conditions": "in vivo; cited from earlier work"}, "[3]": {"test": "Pharmacokinetics of 125I labeled rt-PA in rabbits, trichloroacetic acid (TCA) precipitable radioactivity, i.v. bolus", "format": "in vivo", "from_the_text": "Arginine, 0.2M, and citrate, 0.1M, (pH 6.0) and Tween 80, 0.01 percent, was the buffer used at all times. All samples were dialyzed into this buffer prior to iodination. pH was adjusted to 8.2 with Tris base prior to iodination. The iodination mixture was passed across a PD-10 column (Pharmacia) equilibrated with pH 6.0 buffer, the radioactive fractions from the void volume were pooled, SDS-PAGE was run and the dried gel was autoradiographed.\n(§1) The unlabeled human tissue-type plasminogen activator was used as a carrier for the trace amount of labeled human tissue-type plasminogen activator in order to achieve therapeutic levels and to avoid alterations in the pharmacokinetics that could arise from concentration dependence in the clearance pathways. Serial arterial blood samples were collected over a 26 minute period and placed immediately into tubes containing a lyophilized mixture of D-phe-pro-arg-[…] (PPACK) and EDTA at final concentrations of 1 μM and 4.8 mM, respectively. The tubes were placed on ice and plasma was separated. Trichloroacetic acid (TGA) precipitable (intact human tissue-type plasminogen activator) and total radioactivity were measured in each plasma sample.\n(§2) The following exponential equation was used: Cp=Ae^-αt +Be^-βt, where Cp is the concentration of rt-PA in the plasma at any time, t and A and B are the y intercepts of the fast and slow clearance phases which have slopes of α and β, respectively. The t1/2 for the α and β phases were calculated as the ratio: 1n2/slope. The results from the curve stripping procedure were used as initial approximations to fit the data to a biexponential model using PC NONLIN. One data set (FIG. 4) could not be fit using PC NONLIN so the data from the curve stripping procedure were used. Co, the plasma concentration at zero time, was the sum of A and B. Vo was calculated as dose divided by Co. Area under the curve (AUC) was determined by formula AUC=A/α+B/β. […] AUC was then used to calculate the clearance using the formula, Clearance=Dose/AUC. The relative contributions of the alpha and beta phases were calculated from the following formulas: [formula]\n(§3) Two types of data were generated from in vivo clearance studies in rabbits. One is from the immunoreactive human tissue-type plasminogen activator which should be a measure of the clearance of the unlabeled material. […] The curves of plasma concentration versus time from the immunoreactivity and the TGA precipitable counts were fit to the appropriate multiexponential models and the derived pharmacokinetic parameters were compared.\nThe remaining modified forms of rt-PA were not available in quantities which would allow the pharmacokinetics to be characterized using the above techniques. Therefore the pharmacokinetic characteristics of these materials were determined following iodination.\nThe labeled rt-PA was always coinjected with 1 mg/kg of unmodified rt-PA. The rt-PA with high mannose oligosaccharide structures at all glycosylation sites, produced in the CHO 15B cell line, was also included in this experiment."}, "rat liver hepatocytes": {"tested_on": "rat liver hepatocytes", "conditions": "in vitro; cited from earlier work"}, "[4]": {"conditions": "clinical trials; cited from earlier work"}, "[5]": {"test": "Pharmacokinetics of unlabeled rt-PA in rabbits, immunoreactive t-PA by sandwich ELISA, i.v. bolus", "format": "in vivo", "conditions": "for Microconstant K10: elimination from central compartment; for Microconstant K10 / Microconstant K12 / Microconstant K21: Table 3; for Microconstant K12 / Microconstant K21: equilibration with peripheral compartment", "description": "as §1, §2\nThe data for Table 2 were fit to a model with direct elimination from the central compartment (K10) and equilibration with a peripheral compartment (K12 and K21).\nas §3"}, "clot": {"tested_on": "clot", "test": "In vitro clot lysis assay (Collen et al.), fibrinolytic activity", "format": "biochemical", "from_the_text": "After reduction and carboxymethylation, 34.2 nmoles (expected number is 35) of carboxymethyl cysteine per nmole of rt-PA were recovered in the periodate-treated sample. […] However, with reduction and carboxymethylation,methionine recoveries increased to 3.3 and 2.8 nmoles for the periodate-treated and untreated materials respectively. […] There was no significant difference in recovery of the other amino acids between the periodate-treated and untreated rt-PA (data not shown). […] The specific activity of the periodate-treated PA was 91% that of the control rt-PA as measured by an in vitro clot lysis assay (Collen, D. et al., J. Clin. Path, 21:705-707 [1968])."}, "[6]": {"conditions": "glycosylated versus deglycosylated; cited from earlier work"}, "[7]": {"conditions": "effect of PMSF titration of active site or coinjection of diisopropylfluorophosphate thrombin, asialoorosomucoid, macroalbumin or excess unlabeled t-PA; mice; cited from earlier work"}, "[8]": {"tested_on": "rat liver endothelial cells", "conditions": "cited from earlier work"}, "[9]": {"conditions": "effect of monosaccharides, rats; cited from earlier work"}, "[10]": {"conditions": "removal of sialic acid or chemical modification of carbohydrate; cited from earlier work"}, "[11]": {"conditions": "TCA precipitable radioactivity, labeled, 3.4 μCi/kg, n=4, Table 4"}, "[12]": {"conditions": "labeled rt-PA 10 μCi/kg, coinjected with 1 mg/kg unmodified rt-PA, Table 5"}, "[13]": {"conditions": "immunoreactive rt-PA (IR), unlabeled, 1 mg/kg, n=4, Table 4"}, "[14]": {"conditions": "unlabeled rt-PA, i.v. bolus, doses control 1.0, ENDO 0.83, periodate […], n=5, Table 3"}},
  "note": "Values joined by “and” are separate entries in the source; they are usually repeats but may differ in a detail not shown here. Identical values can stand only once. Like-named read-outs stand apart in the source and are kept apart here.",
  "data": [
    {"substance": "Control: wild type recombinant human tissue-type plasminogen activator (rt-PA)", "values": [
      {"measurement": "alpha phase half life", "setting": "[1]", "result": "4 min and 6 min"},
      {"measurement": "alpha phase half life", "setting": "[2]", "result": "about 2 min"},
      {"measurement": "site of uptake and metabolism", "setting": "liver", "result": "The liver is the most significant site of t-PA uptake and metabolism"},
      {"measurement": "elimination of labeled versus unlabeled rt-PA", "setting": "[3]; TCA precipitable counts versus immunoreactivity", "result": "cleared more slowly"},
      {"measurement": "% AUCα", "setting": "[3]; [11]", "result": 62.1, "unit": "%"},
      {"measurement": "% AUCβ", "setting": "[3]; [11]", "result": 37.9, "unit": "%"},
      {"measurement": "Cl", "setting": "[3]; [11]", "result": 3.92, "unit": "mL/min/kg"},
      {"measurement": "T1/2 α", "setting": "[3]; [11]", "result": 30.3, "unit": "min"},
      {"measurement": "T1/2 β", "setting": "[3]; [11]", "result": 3.36, "unit": "min"},
      {"measurement": "Vo", "setting": "[3]; [11]", "result": 0.0277, "unit": "L/kg"},
      {"measurement": "% AUCα", "setting": "[3]; [12]", "result": 52, "unit": "%"},
      {"measurement": "% AUCβ", "setting": "[3]; [12]", "result": 48, "unit": "%"},
      {"measurement": "Cl", "setting": "[3]; [12]", "result": 5.72, "unit": "mL/min/kg"},
      {"measurement": "T1/2 α", "setting": "[3]; [12]", "result": 2.55, "unit": "min"},
      {"measurement": "T1/2 β", "setting": "[3]; [12]", "result": 14.9, "unit": "min"},
      {"measurement": "Vo", "setting": "[3]; [12]", "result": 0.0315, "unit": "L/kg"},
      {"measurement": "binding affinity", "setting": "rat liver hepatocytes", "result": "bind with high affinity to rat liver hepatocytes"},
      {"measurement": "effect on fibrinogen levels in the blood", "setting": "[4]", "result": "minimal effects on fibrinogen levels in the blood"},
      {"measurement": "thrombolytic efficacy", "setting": "[4]", "result": "extremely effective thrombolytic agent"},
      {"measurement": "Microconstant K10", "setting": "[5]; unlabeled rt-PA", "result": 227, "unit": "min^-1 × 10^3"},
      {"measurement": "Microconstant K12", "setting": "[5]; unlabeled rt-PA", "result": 35, "unit": "min^-1 × 10^3"},
      {"measurement": "Microconstant K21", "setting": "[5]; unlabeled rt-PA", "result": 42, "unit": "min^-1 × 10^3"},
      {"measurement": "% AUCα", "setting": "[5]; [13]", "result": 81.5, "unit": "%"},
      {"measurement": "% AUCβ", "setting": "[5]; [13]", "result": 18.5, "unit": "%"},
      {"measurement": "Cl", "setting": "[5]; [13]", "result": 5.51, "unit": "mL/min/kg"},
      {"measurement": "T1/2 α", "setting": "[5]; [13]", "result": 21.3, "unit": "min"},
      {"measurement": "T1/2 β", "setting": "[5]; [13]", "result": 3.05, "unit": "min"},
      {"measurement": "Vo", "setting": "[5]; [13]", "result": 0.03, "unit": "L/kg"},
      {"measurement": "Cl", "setting": "[5]; [14]", "result": 9.57, "unit": "mL/min/kg"},
      {"measurement": "T1/2 α", "setting": "[5]; [14]", "result": 2.61, "unit": "min"},
      {"measurement": "T1/2 β", "setting": "[5]; [14]", "result": 19.6, "unit": "min"}
    ]},
    {"substance": "Periodate", "values": [
      {"measurement": "rate of clearance versus control", "setting": "[3]; labeled", "result": "smaller rates of clearance than the control rt-PA"},
      {"measurement": "relative size of alpha and beta phase", "setting": "[3]; labeled", "result": "the dominant change in the elimination pattern of the Endo-H and Periodate treated rt-PA again appears to be in the relative size of the alpha and beta phase"},
      {"measurement": "% AUCα", "setting": "[3]; [12]", "result": 32, "unit": "%"},
      {"measurement": "% AUCβ", "setting": "[3]; [12]", "result": 68, "unit": "%"},
      {"measurement": "Cl", "setting": "[3]; [12]", "result": 2.74, "unit": "mL/min/kg"},
      {"measurement": "T1/2 α", "setting": "[3]; [12]", "result": 3.30, "unit": "min"},
      {"measurement": "T1/2 β", "setting": "[3]; [12]", "result": 30.3, "unit": "min"},
      {"measurement": "Vo", "setting": "[3]; [12]", "result": 0.0326, "unit": "L/kg"},
      {"measurement": "specific activity relative to control rt-PA", "setting": "clot; in vitro clot lysis assay, % of control rt-PA", "result": 91, "unit": "%"},
      {"measurement": "fibrinolytic activity", "setting": "clot; in vitro clot lysis, versus untreated control", "result": "did not alter the activity of the rt-PA significantly"},
      {"measurement": "elimination", "setting": "[5]; FIG. 4, unlabeled", "result": "slow the elimination of rt-PA"},
      {"measurement": "Microconstant K10", "setting": "[5]; unlabeled rt-PA", "result": 63, "unit": "min^-1 × 10^3"},
      {"measurement": "Microconstant K12", "setting": "[5]; unlabeled rt-PA", "result": 72, "unit": "min^-1 × 10^3"},
      {"measurement": "Microconstant K21", "setting": "[5]; unlabeled rt-PA", "result": 54, "unit": "min^-1 × 10^3"},
      {"measurement": "Vo, difference versus control", "setting": "[5]; unlabeled", "result": "no significant differences"},
      {"measurement": "fold slower rate of clearance than control rt-PA", "setting": "[5]; unlabeled", "result": 2.7, "unit": "fold"},
      {"measurement": "t1/2 alpha, change versus control", "setting": "[5]; unlabeled", "result": "significant increase"},
      {"measurement": "t1/2 beta, difference versus control", "setting": "[5]; unlabeled", "result": "no significant differences"},
      {"measurement": "Cl", "setting": "[5]; [14]", "result": 3.53, "unit": "mL/min/kg"},
      {"measurement": "T1/2 α", "setting": "[5]; [14]", "result": 4.22, "unit": "min"},
      {"measurement": "T1/2 β", "setting": "[5]; [14]", "result": 37.5, "unit": "min"}
    ]},
    {"substance": "deglycosylated human tissue-type plasminogen activator: deglycosylated human tissue-type plasminogen activator (Larsen et al.)", "values": [
      {"measurement": "in vivo clearance rate", "setting": "[6]", "result": "not significantly different"}
    ]},
    {"substance": "melanoma-derived t-PA: t-PA isolated from melanoma cell line", "values": [
      {"measurement": "elimination", "setting": "[7]", "result": "unaffected"},
      {"measurement": "uptake", "setting": "[8]", "result": "a pathway that could be inhibited by high mannose glycoproteins"},
      {"measurement": "clearance", "setting": "[9]", "result": "unaffected by monosaccharides"}
    ]},
    {"substance": "transferrin: transferrin, serum glycoprotein, after removal of sialic acid", "values": [
      {"measurement": "half-life change", "setting": "[10]", "result": "no significant effect on half-life"}
    ]},
    {"substance": "urokinase", "values": [
      {"measurement": "half-life change", "setting": "[10]", "result": "extending the half-life"}
    ]}
  ]
}
